Results published in article PMC10996005 (2024).
*1 amine or outer side, *2 acyl side, *3 side chain or, on linkers, in order; H or OH if unused. [ ]: non-standard residue; d: D form. Phe(4-OMe) = COc1ccc(C[C@H](N[*:1])C(=O)[*:2])cc1; Phe(4-I) = N[C@@H](Cc1ccc(I)cc1)C(=O)O; 1Nal = N[C@@H](Cc1cccc2ccccc12)C(=O)O; hPhe = N[C@@H](CCc1ccccc1)C(=O)O; 4Pal = N[C@@H](Cc1ccncc1)C(=O)O; Phg = N[C@H](C(=O)O)c1ccccc1

B1: cyclo-CRLII(4-iodo)F (peptide)
chain: cyclo(CRLII[Phe(4-I)])
SMILES: CC[C@H](C)[C@@H]1NC(=O)[C@H](CC(C)C)NC(=O)[C@H](CCCNC(=N)N)NC(=O)[C@H](CS)NC(=O)[C@H](Cc2ccc(I)cc2)NC(=O)[C@H]([C@@H](C)CC)NC1=O
B2: cyclo-CRLII(hF) (peptide)
chain: cyclo(CRLII[hPhe])
SMILES: CC[C@H](C)[C@@H]1NC(=O)[C@H](CC(C)C)NC(=O)[C@H](CCCNC(=N)N)NC(=O)[C@H](CS)NC(=O)[C@H](CCc2ccccc2)NC(=O)[C@H]([C@@H](C)CC)NC1=O
B3: cyclo-CRLII(4-iodo)F (peptide)
chain: cyclo(CRLII[Phe(4-I)])
SMILES: CC[C@H](C)[C@@H]1NC(=O)[C@H](CC(C)C)NC(=O)[C@H](CCCNC(=N)N)NC(=O)[C@H](CS)NC(=O)[C@H](Cc2ccc(I)cc2)NC(=O)[C@H]([C@@H](C)CC)NC1=O
B4: cyclo-CRLII(4-Pal) (peptide)
chain: cyclo(CRLII[4Pal])
SMILES: CC[C@H](C)[C@@H]1NC(=O)[C@H](CC(C)C)NC(=O)[C@H](CCCNC(=N)N)NC(=O)[C@H](CS)NC(=O)[C@H](Cc2ccncc2)NC(=O)[C@H]([C@@H](C)CC)NC1=O
B5: cyclo-CRLII(D-F) (peptide)
chain: cyclo(CRLII[dF])
SMILES: CC[C@H](C)[C@@H]1NC(=O)[C@H](CC(C)C)NC(=O)[C@H](CCCNC(=N)N)NC(=O)[C@H](CS)NC(=O)[C@@H](Cc2ccccc2)NC(=O)[C@H]([C@@H](C)CC)NC1=O
B6: cyclo-CRLII(Phg) (peptide)
chain: cyclo(CRLII[Phg])
SMILES: CC[C@H](C)[C@@H]1NC(=O)[C@H](CC(C)C)NC(=O)[C@H](CCCNC(=N)N)NC(=O)[C@H](CS)NC(=O)[C@H](c2ccccc2)NC(=O)[C@H]([C@@H](C)CC)NC1=O
B7: cyclo-CRLII(1-Nal) (peptide)
chain: cyclo(CRLII[1Nal])
SMILES: CC[C@H](C)[C@@H]1NC(=O)[C@H](CC(C)C)NC(=O)[C@H](CCCNC(=N)N)NC(=O)[C@H](CS)NC(=O)[C@H](Cc2cccc3ccccc23)NC(=O)[C@H]([C@@H](C)CC)NC1=O

Tests used:
HIF-2α PAS-B [1] = biological target: HIF-2α PAS-B (Homo sapiens, UniProt Q99814); assay: MST
Target sequence in this assay (Q99814 240-350): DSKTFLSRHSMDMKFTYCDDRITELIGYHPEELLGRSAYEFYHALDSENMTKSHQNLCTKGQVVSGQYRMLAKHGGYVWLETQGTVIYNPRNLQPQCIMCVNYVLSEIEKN

HIF-1α PAS-B [2] = biological target: T1, HIF-1α PAS-B (Homo sapiens, UniProt Q16665); assay: MST
T1 sequence (Q16665 238-349): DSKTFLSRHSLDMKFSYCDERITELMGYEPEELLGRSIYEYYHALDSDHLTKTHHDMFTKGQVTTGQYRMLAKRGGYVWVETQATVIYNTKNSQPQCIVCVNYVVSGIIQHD

HIF-2α PAS-B [3] = biological target: HIF-2α PAS-B (Homo sapiens, UniProt Q99814); assay: MST; remark: listed apart in the source
Target sequence in this assay (Q99814 240-350 G323E): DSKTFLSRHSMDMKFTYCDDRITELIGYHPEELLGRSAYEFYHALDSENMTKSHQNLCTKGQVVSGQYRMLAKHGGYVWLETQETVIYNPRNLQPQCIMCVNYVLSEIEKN

HIF-1α PAS-B [4] = biological target: T1, HIF-1α PAS-B; assay: FP

| Binder | Kd (HIF-1α PAS-B [2]) | further results |
| --- | --- | --- |
| B1 | 0.821 µM | Kd (HIF-2α PAS-B [1]): 1.7 µM |
| B2 | 1.2 µM | – |
| CRVIIF (head-to-tail cyclic peptide) [cyclo-CRVIIF] | 65 µM | Kd (HIF-2α PAS-B [1]): 123 µM |
| CRLIIF (head-to-tail cyclic peptide) | 3.8 µM | – |
| B3 | – | Kd (HIF-2α PAS-B [3]): 7.2 µM |
| B4 | 39.6 µM | – |
| CRLLIF (head-to-tail cyclic peptide) [cyclo-CRLLIF] | 14.5 µM | Kd (HIF-2α PAS-B [1]): 10.2 µM |
| CKLIIF (head-to-tail cyclic peptide) [cyclo-CKLIIF] | 2.6 µM | Kd (HIF-2α PAS-B [1]): 2.2 µM |
| cyclo(CRLII[Phe(4-OMe)]) [cyclo-CRLII(4-OMe)F] | 11.2 µM | – |
| B5 | 6.2 µM | – |
| B6 | 5.8 µM | – |
| B7 | 1.7 µM | – |
| cyclo(CRLII[Phe(4-Bz)]) [cyclo-CRLII(4-Bz)F] | 1.6 µM | – |
| CKLLIF (head-to-tail cyclic peptide) [cyclo-CKLLIF] | 12 µM | – |
| cyclo(CRLIIF) (also: Cy5-labeled HIF-1α) | – | Kd (HIF-1α PAS-B [4]): 4.6 µM |
